T1: human CLDN4 protein (human, UniProt O14493 1-209)
T1 sequence (looked up): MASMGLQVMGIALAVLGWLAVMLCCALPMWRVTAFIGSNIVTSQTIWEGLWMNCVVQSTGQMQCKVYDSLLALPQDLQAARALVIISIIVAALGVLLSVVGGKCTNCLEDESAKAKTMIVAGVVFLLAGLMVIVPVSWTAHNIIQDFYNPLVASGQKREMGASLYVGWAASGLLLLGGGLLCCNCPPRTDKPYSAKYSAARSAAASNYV

T2: human CLDN6 protein (human, UniProt P56747 1-220)
T2 sequence (looked up): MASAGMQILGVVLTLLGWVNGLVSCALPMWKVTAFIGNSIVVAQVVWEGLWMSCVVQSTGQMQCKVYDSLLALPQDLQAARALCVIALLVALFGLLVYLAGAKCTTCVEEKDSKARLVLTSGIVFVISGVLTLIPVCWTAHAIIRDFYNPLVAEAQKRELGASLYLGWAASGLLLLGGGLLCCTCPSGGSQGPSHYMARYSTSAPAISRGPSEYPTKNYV

T3: human CLDN9 protein (human, UniProt O95484 1-217)
T3 sequence (looked up): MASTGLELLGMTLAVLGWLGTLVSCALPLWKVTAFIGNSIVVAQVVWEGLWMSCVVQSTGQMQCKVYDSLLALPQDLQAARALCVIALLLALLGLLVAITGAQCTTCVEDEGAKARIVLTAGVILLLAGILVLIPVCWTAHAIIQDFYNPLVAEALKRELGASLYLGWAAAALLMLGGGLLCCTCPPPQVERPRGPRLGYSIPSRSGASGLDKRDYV


Columns and labels:
human CLDN4 protein [1] = molecular target: T1, human CLDN4 protein; assay: flow cytometry on cells overexpressing human CLDN4; 10 µg/mL control antibody, Alexa 647 anti-mouse secondary; single point
human CLDN6 protein [2] = molecular target: T2, human CLDN6 protein; assay: flow cytometry on cells overexpressing human CLDN6; 10 µg/mL control antibody, Alexa 647 anti-mouse secondary; single point
human CLDN9 protein [3] = molecular target: T3, human CLDN9 protein; assay: flow cytometry on cells overexpressing human CLDN9; 10 µg/mL control antibody, Alexa 647 anti-mouse secondary; single point
human CLDN6 protein [4] = molecular target: T2, human CLDN6 protein; assay: flow cytometry on cells overexpressing human CLDN6; 10 µg/mL purified antibody, Alexa 647 anti-mouse secondary; single point
human CLDN4 protein [5] = molecular target: T1, human CLDN4 protein; assay: flow cytometry on cells overexpressing human CLDN4; 10 µg/mL purified antibody, Alexa 647 anti-mouse secondary; single point
human CLDN9 protein [6] = molecular target: T3, human CLDN9 protein; assay: cell-based or functional assay
human CLDN6 protein [7] = molecular target: T2, human CLDN6 protein; assay: cell-based or functional assay
human CLDN9 protein [8] = molecular target: T3, human CLDN9 protein; assay: flow cytometry on cells overexpressing human CLDN9; 10 µg/mL purified antibody, Alexa 647 anti-mouse secondary; single point
human CLDN4 protein [9] = molecular target: T1, human CLDN4 protein; assay: flow cytometry on cells overexpressing human CLDN4; Alexa 647 anti-mouse secondary; single point
human CLDN4 protein [10] = molecular target: T1, human CLDN4 protein; assay: cell-based or functional assay
human CLDN6 protein [11] = molecular target: T2, human CLDN6 protein; assay: cell-based or functional assay; remark: listed apart in the source
human CLDN9 protein [12] = molecular target: T3, human CLDN9 protein; assay: flow cytometry on cells overexpressing human CLDN9; Alexa 647 anti-mouse secondary; single point

| Molecule | MFI (human CLDN4 protein [1]) | MFI (human CLDN6 protein [2]) | MFI (human CLDN9 protein [3]) | MFI (human CLDN6 protein [4]) | MFI (human CLDN4 protein [5]) | MFI (human CLDN9 protein [8]) | binding result (human CLDN4 protein [9]) | binding result (human CLDN9 protein [12]) | apparent IC50 of killing of HEK-293T cells overexpressing hCLDN9; antibody titrated 0.15 to 1000 nM with anti-mouse IgG Fab-saporin, CellTiter-Glo (human CLDN9 protein [6]) [nM] | apparent IC50 of killing of HEK-293T cells overexpressing hCLDN6; antibody titrated 0.15 to 1000 nM with anti-mouse IgG Fab-saporin, CellTiter-Glo (human CLDN6 protein [7]) [nM] | apparent IC50 of killing of HEK-293T cells overexpressing hCLDN4; antibody titrated 0.15 to 1000 nM with anti-mouse IgG Fab-saporin, CellTiter-Glo (human CLDN4 protein [10]) [nM] | apparent IC50 of saporin-mediated cell killing (human CLDN6 protein [11]) [nM] |
| --- | --- | --- | --- | --- | --- | --- | --- | --- | --- | --- | --- | --- |
| SC27.106 (antibody, V domains shown, also called SC27.106 mouse monoclonal anti-CLDN antibody) VH: EVQLQQSGPELVKPGASVKISCKTSGYTFTEYTMHWVKQSHGKSLEWIGGINPNNGGTNYNQKFKGKATLTVDKSSSTAYMELRSLTSEDSAVYYCARRLITYYAMDYWGQGTSVTVSS VL: DIQMTQSSSSFSVSLGDRVTITCKASEDIYNRLAWYQQKPGNAPRLLICGATSLETGVPSRFSGSGSGKDYTLSITSLQTEDVATYYCQQYWSTPLTFGAGTKLELK |  |  |  | 55800 | 1990 | 595 |  |  |  |  |  |  |
| SC27.104 mouse monoclonal anti-CLDN antibody (antibody, V domains shown) VH: EVQLQQSGPELVKPGASVKISCKTSGYTFTEYTVHWVKQSHGKSLEWIGGVYPKNGDTTYNQKFRGKATLTVDKSSNTAYMELRSLTSEDSAVYYCTGKDGYDGFAYWGQGTLVTVSA VL: DIQMTQSSSSFSVSLGDRVTITCKASEDIYNRLAWYQQKPGNAPRLLISGATSLETGVPSRFSGSGSGKDYTLSITSLQTEDVATYYCQQYWSNPPTFGGGTKLEIK |  |  |  | 39200 | 22600 | 7230 |  |  |  | 284 | 969 |  |
| SC27.108 mouse monoclonal anti-CLDN antibody (antibody, V domains shown, also called SC27.109 (identical)) VH: QVQMQQSGAELVRPGTSVKVSCKASGYAFTNYLIEWVKQRPGQGLEWIGLINPGSGGTNYNEKFKGKATLTADKSSTTAYMQLSSLTSDDSAVYFCARRSPLGSWIYYAYDGVAYWGQGTLVTVSA VL: EIVLTQSPALMAASPGEKVTITCSVSSSISSSNLHWYQQKSGTSPKLWIYGTSNLASGVPVRFSGSGSGTSYSLTISNMEAEDAATYYCQQWSSYPHTFGGGTKLEIK |  |  |  | 99700 | 88 | 86 | no binding (tested: 10 µg/mL) | no binding (tested: 10 µg/mL) |  | 102 |  | 100 |
| SC27.105 mouse monoclonal anti-CLDN antibody (antibody, V domains shown) VH: EVQLQQSGPELVKPGASVKISCKASGYSFTGYYMNWVKQSPEKSLEWIGEINPSTGSTTYNQKFKAKATLTVDKSSSTAYMQLKSLTSEDSAVYYCARRDYYYGSGFYAMDYWGQGTSVTVSS VL: DVQMTQSPSSLSASLGERVSLTCQASQSVSNNLNWYQQTPGKAPRLLIYGASKLEDGVSSRFSGTGYGTDFTFTISSLEEEDVATYFCLQHRYLWTFGGGTKLEIK |  |  |  | 83000 | 69 | 80 | no binding (tested: 10 µg/mL) | no binding (tested: 10 µg/mL) |  | 235 |  |  |

The next lines start with results.

| MFI (human CLDN4 protein [1]) | MFI (human CLDN6 protein [2]) | MFI (human CLDN9 protein [3]) | MFI (human CLDN6 protein [4]) | MFI (human CLDN4 protein [5]) | MFI (human CLDN9 protein [8]) | binding result (human CLDN4 protein [9]) | binding result (human CLDN9 protein [12]) | Molecule | apparent IC50 of killing of HEK-293T cells overexpressing hCLDN9; antibody titrated 0.15 to 1000 nM with anti-mouse IgG Fab-saporin, CellTiter-Glo (human CLDN9 protein [6]) [nM] | apparent IC50 of killing of HEK-293T cells overexpressing hCLDN6; antibody titrated 0.15 to 1000 nM with anti-mouse IgG Fab-saporin, CellTiter-Glo (human CLDN6 protein [7]) [nM] | apparent IC50 of killing of HEK-293T cells overexpressing hCLDN4; antibody titrated 0.15 to 1000 nM with anti-mouse IgG Fab-saporin, CellTiter-Glo (human CLDN4 protein [10]) [nM] | apparent IC50 of saporin-mediated cell killing (human CLDN6 protein [11]) [nM] |
| --- | --- | --- | --- | --- | --- | --- | --- | --- | --- | --- | --- | --- |
| 73 | 84 | 81 |  |  |  |  |  | mIgG2b control (antibody) |  |  |  |  |
|  |  |  | 106000 | 79 | 23000 | no binding (tested: 10 µg/mL) |  | SC27.204 mouse monoclonal anti-CLDN antibody (antibody, V domains shown) VH: EVKVLESGGGLVQPGGSLKLSCAASGFDFSRYWMSWVRQAPGKGLEWIGEINPDSSTINYTPSLKAKFIISRDNAKNTLYLQMSKVRSEDTALYYCTGPAYWGQGTLVTVSA VL: DIVMTQSQKFMSTSVGDRVSVACKAGQNVGTSVAWYQQKPGHSPKSLIYSASYRYSGVPNRFTGSGSGTDFTLTISNVQSEDLADYFCQQYITYPYTFGGGTKLEII | 16.9 | 25.2 |  |  |
|  |  |  | 29900 | 23100 | 7100 |  |  | SC27.201 mouse monoclonal anti-CLDN antibody (antibody, V domains shown) VL: DIQMTQSSSSFSVSLGDRVTITCKASEDIYNRLAWYQQKPGNAPRLLISGATSLEAGVPSGFSGSGSGKDYTLSITSLQTEDVATYYCQQYWSTPPTFGGGTKLELK V domain: EVQLQQSGPELVKPGASVKISCKTSGYTFTENIRHWVKQSRGKSLEWIGTINPNNGETRYNQKFKGKATLTVDKSSSTAYMELRSLTSEDSAVYYCTRGITKSPYGMDYWGQGTSITVSS | 155 | 48.2 | 69.7 |  |
|  |  |  | 47400 | 2980 | 587 |  |  | SC27.203 (antibody, V domains shown, also called SC27.203 mouse monoclonal anti-CLDN antibody) VH: EVQLQQSGPELVKPGASVKISCKTSGYTFTENIIHWVKQSHGKSLEWIGGINPINGGTSYNQKFKGKATLTVDKSSSTAYMELRSLTSEDSAVYYCARGITTSPYAMDYWGQGTSVTVSS VL: DIQMTQSSSSFSVSLGDRVTITCKASEDIYNRLAWYQQNPGNTPRLLMSGATSLETGVPSRFSGSGSGKDYTLSITSLQIEDVSTYYCQQYWSTPPTFGGGTRLEIK |  |  |  |  |
